In the Human Domainome abundance scans (Beltran et al. 2025):
± gives the uncertainty stated by the source.

B1: POU domain, class 2, transcription factor 2, residues 200 to 269; numbered along this chain, P09086 (parent)
chain: LEELEQFARTFKQRRIKLGFTQGDVGLAMGKLYGNDFSQTTISRFEALNLSFKNMCKLKPLLEKWLNDAE

Variants of: B1
Assay: abundance fitness (aPCA) (normalised: wild type 0, dead -1); higher = more abundant; growth selection in yeast, the domain comes from the species named
Conditions: Homo sapiens

Variant	abundance fitness
L66W	-0.232 ± 0.058
L66S	-0.238 ± 0.043
L66E	-0.409 ± 0.077
L66C	0.025 ± 0.084
L66H	-0.526 ± 0.36
L66A	0.001 ± 0.056
L66M	-0.027 ± 0.057
L66P	-0.719 ± 0.3
L66F	-0.27 ± 0.11
L66I	0.03 ± 0.11
L66G	-0.38 ± 0.046
L66R	-0.837 ± 0.079
L66Y	-0.047 ± 0.16
L66T	-0.355 ± 0.081
L66Q	-0.358 ± 0.076
L66V	0.007 ± 0.045
L66D	-0.358 ± 0.18
K57P	-0.44 ± 0.064
K57L	-0.08 ± 0.041
K57I	-0.153 ± 0.085
K57T	0.024 ± 0.041
K57M	0.01 ± 0.049
K57Y	-0.089 ± 0.11
K57W	-0.068 ± 0.048

Variant	abundance fitness
K57S	-0.067 ± 0.049
K57Q	-0.023 ± 0.061
K57R	-0.064 ± 0.031
K57V	-0.088 ± 0.042
K57N	-0.125 ± 0.091
K64A	0.081 ± 0.084
K64W	-0.257 ± 0.072
K64N	-0.232 ± 0.11
K64I	-0.158 ± 0.14
K64E	-0.016 ± 0.064
K64V	-0.048 ± 0.054
K64L	-0.049 ± 0.046
K64H	0.041 ± 0.11
K64S	-0.084 ± 0.073
K64M	-0.096 ± 0.069
K64C	-0.117 ± 0.095
K64P	-0.343 ± 0.067
K64Y	-0.24 ± 0.073
K64D	0.003 ± 0.09
K64R	-0.054 ± 0.037
K64Q	0.008 ± 0.052
K59T	-0.167 ± 0.049
K59V	-0.031 ± 0.036
K59L	-0.069 ± 0.035

Variant	abundance fitness
K59G	-0.079 ± 0.038
K59Q	-0.094 ± 0.076
K59P	-0.761 ± 0.12
K59E	-0.293 ± 0.047
K59C	-0.14 ± 0.066
K59A	-0.086 ± 0.054
K59F	-0.14 ± 0.094
K59I	0.001 ± 0.13
K59R	-0.078 ± 0.047
K59H	-0.098 ± 0.14
K59N	-0.435 ± 0.11
K59W	-0.078 ± 0.054
P60K	-0.295 ± 0.13
P60R	-0.102 ± 0.035
P60W	-0.334 ± 0.065
P60Q	-0.103 ± 0.059
P60V	-0.035 ± 0.036
P60M	-0.207 ± 0.076
P60D	-0.082 ± 0.077
P60S	-0.069 ± 0.057
P60C	-0.177 ± 0.059
P60G	-0.016 ± 0.044
P60Y	-0.378 ± 0.082
P60A	-0.124 ± 0.044

Variant	abundance fitness
P60I	0.098 ± 0.069
P60N	-0.177 ± 0.1
P60L	-0.156 ± 0.036
P60H	-0.216 ± 0.14
P60T	-0.06 ± 0.052
P60F	-0.05 ± 0.079
P60E	-0.109 ± 0.048
N67Y	-0.497 ± 0.38
N67D	-0.221 ± 0.22
D68K	-0.015 ± 0.044
D68V	-0.054 ± 0.043
D68I	-0.22 ± 0.088
D68H	-0.205 ± 0.14
D68Y	-0.076 ± 0.074
D68R	-0.022 ± 0.029
D68E	-0.047 ± 0.052
D68Q	-0.063 ± 0.079
D68F	0.085 ± 0.11
D68P	-0.349 ± 0.03
D68C	-0.053 ± 0.066
D68W	-0.147 ± 0.06
W65V	-0.198 ± 0.065
W65A	-0.469 ± 0.063
W65T	-0.362 ± 0.061

Variant	abundance fitness
W65S	-0.522 ± 0.11
W65C	-0.243 ± 0.06
W65P	-0.433 ± 0.15
W65Q	-0.843 ± 0.18
W65Y	-0.128 ± 0.093
W65R	-0.628 ± 0.066
W65E	-0.923 ± 0.17
W65G	-0.71 ± 0.088
W65M	-0.309 ± 0.12
W65K	-0.716 ± 0.16
L62C	-0.096 ± 0.1
L62T	-0.501 ± 0.1
L62K	-0.896 ± 0.15
L62I	0.014 ± 0.096
L62D	-0.999 ± 0.1
L62M	0.025 ± 0.05
L62Q	-0.843 ± 0.18
L62A	-0.166 ± 0.04
L62S	-0.804 ± 0.1
L62E	-0.974 ± 0.13
L62P	-0.93 ± 0.27
L62V	-0.043 ± 0.049
L62R	-0.968 ± 0.11
L62G	-0.744 ± 0.064

Variant	abundance fitness
L62Y	-0.076 ± 0.17
L61C	0.026 ± 0.048
L61G	-0.093 ± 0.032
L61P	-0.027 ± 0.032
L61I	-0.141 ± 0.1
L61F	0.05 ± 0.096
L61H	-0.064 ± 0.079
L61V	-0.064 ± 0.032
L61M	-0.031 ± 0.044
L61K	0.032 ± 0.056
L61T	0.008 ± 0.04
L61Q	0.013 ± 0.042
L61Y	-0.082 ± 0.15
L61S	-0.038 ± 0.04
L61A	-0.043 ± 0.041
L61R	-0.038 ± 0.031
L61D	-0.006 ± 0.14
L58G	-0.619 ± 0.042
L58W	-0.007 ± 0.038
L58F	0.005 ± 0.095
L58N	-0.227 ± 0.11
L58Y	-0.157 ± 0.06
L58V	-0.005 ± 0.037
L58E	-0.478 ± 0.091

Variant	abundance fitness
L58R	-0.259 ± 0.03
L58P	-0.747 ± 0.12
L58K	-0.099 ± 0.06
L58Q	-0.194 ± 0.08
L58A	-0.002 ± 0.04
L58T	-0.049 ± 0.061
L58D	-0.576 ± 0.074
L58H	-0.221 ± 0.11
L58I	0.057 ± 0.11
L58S	-0.228 ± 0.054
L58M	-0.011 ± 0.067
L58C	-0.067 ± 0.063
A69E	0.009 ± 0.069
A69K	-0.105 ± 0.063
A69N	0.128 ± 0.25
A69D	-0.233 ± 0.088
A69R	-0.007 ± 0.049
A69F	-0.179 ± 0.085
A69L	-0.034 ± 0.062
A69P	-0.15 ± 0.054
A69S	-0.046 ± 0.051
A69I	0.012 ± 0.11
A69G	-0.126 ± 0.049
